According to patent US20200407442A1 (WUXI BIOLOGICS IRELAND, published 2020):

Tests used:
Test in all cases: FACS, 1 ug/mL antibody, transfected 293F cells
[1] = biological target: T1, full-length mouse LAG-3 on cells (mouse, UniProt Q61790 24-521)
T1 construct: also called mPro1.FL; murine LAG-3
T1 sequence: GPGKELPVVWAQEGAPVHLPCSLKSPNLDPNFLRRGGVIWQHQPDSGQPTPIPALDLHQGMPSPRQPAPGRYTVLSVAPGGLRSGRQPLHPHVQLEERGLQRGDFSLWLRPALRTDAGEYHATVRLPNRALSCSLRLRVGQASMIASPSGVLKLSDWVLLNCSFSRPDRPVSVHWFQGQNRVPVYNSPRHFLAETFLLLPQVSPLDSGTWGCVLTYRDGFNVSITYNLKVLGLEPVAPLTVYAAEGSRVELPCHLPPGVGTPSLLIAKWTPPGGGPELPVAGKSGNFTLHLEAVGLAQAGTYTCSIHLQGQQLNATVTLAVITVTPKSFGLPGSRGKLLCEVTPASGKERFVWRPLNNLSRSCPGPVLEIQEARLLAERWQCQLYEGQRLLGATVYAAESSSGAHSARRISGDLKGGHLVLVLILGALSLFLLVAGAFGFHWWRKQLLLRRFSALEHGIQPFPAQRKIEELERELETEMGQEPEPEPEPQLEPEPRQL

Variant 4: xPro1.FL-x4 = biological target: T2, Variant 4: xPro1.FL-x4 (human; mouse)
T2 construct: Chimeric full-length LAG-3 on transfected 293F cells
T2 chain: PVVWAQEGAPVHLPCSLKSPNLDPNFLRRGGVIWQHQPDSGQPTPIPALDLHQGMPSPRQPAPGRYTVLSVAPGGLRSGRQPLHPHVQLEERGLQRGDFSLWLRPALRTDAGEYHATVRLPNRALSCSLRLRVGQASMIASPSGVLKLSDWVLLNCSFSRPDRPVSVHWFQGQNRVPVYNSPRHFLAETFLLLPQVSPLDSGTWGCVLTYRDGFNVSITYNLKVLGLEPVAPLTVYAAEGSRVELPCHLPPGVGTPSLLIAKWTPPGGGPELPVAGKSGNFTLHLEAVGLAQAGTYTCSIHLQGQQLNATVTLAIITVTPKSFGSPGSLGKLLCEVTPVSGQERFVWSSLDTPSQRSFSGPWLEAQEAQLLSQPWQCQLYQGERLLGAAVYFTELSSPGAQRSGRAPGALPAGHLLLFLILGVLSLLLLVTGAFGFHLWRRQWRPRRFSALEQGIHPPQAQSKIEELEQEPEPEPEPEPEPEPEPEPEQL

Variant 7: xPro1.FL-x7 = biological target: T3, Variant 7: xPro1.FL-x7 (human; mouse)
T3 construct: Chimeric full-length LAG-3 on transfected 293F cells
T3 chain: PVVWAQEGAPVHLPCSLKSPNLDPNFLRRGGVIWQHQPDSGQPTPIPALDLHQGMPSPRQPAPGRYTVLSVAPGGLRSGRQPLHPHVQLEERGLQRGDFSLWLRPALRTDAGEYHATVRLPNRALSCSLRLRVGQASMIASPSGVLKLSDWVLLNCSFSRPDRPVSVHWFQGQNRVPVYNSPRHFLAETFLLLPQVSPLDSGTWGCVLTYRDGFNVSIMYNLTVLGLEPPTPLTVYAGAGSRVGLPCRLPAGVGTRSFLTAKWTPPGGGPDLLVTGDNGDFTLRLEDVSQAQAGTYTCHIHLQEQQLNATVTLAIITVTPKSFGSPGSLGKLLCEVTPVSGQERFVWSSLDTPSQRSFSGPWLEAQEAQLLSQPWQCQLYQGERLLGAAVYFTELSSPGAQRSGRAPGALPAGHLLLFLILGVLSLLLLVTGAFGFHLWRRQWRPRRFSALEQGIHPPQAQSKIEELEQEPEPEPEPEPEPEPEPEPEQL

Variant 8: xPro1.FL-x8 = biological target: T4, Variant 8: xPro1.FL-x8 (human; mouse)
T4 construct: Chimeric full-length LAG-3 on transfected 293F cells
T4 chain: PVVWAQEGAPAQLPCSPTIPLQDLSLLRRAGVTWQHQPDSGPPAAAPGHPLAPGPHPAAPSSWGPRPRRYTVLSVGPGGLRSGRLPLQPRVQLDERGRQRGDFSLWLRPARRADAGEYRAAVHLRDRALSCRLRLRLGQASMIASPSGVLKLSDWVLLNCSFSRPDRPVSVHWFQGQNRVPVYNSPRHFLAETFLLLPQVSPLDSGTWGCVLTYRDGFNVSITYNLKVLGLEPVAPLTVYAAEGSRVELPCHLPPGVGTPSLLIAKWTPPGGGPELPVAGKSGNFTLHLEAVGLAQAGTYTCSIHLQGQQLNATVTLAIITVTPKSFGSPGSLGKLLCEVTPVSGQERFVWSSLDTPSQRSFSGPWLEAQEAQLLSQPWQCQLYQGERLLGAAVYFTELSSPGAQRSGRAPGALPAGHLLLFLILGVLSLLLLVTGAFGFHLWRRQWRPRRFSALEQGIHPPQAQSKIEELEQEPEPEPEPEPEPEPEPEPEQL

- MFI [1]: 43.9
- PE+ % [1]: 1.1%
- MFI (Variant 4: xPro1.FL-x4): 41
- PE+ % (Variant 4: xPro1.FL-x4): 1.42%
- MFI (Variant 7: xPro1.FL-x7): 39.3
- PE+ % (Variant 7: xPro1.FL-x7): 1.52%
- MFI (Variant 8: xPro1.FL-x8): 7430
- PE+ % (Variant 8: xPro1.FL-x8): 97.6%
B1: 1.53.3-uAb-IgG4k (antibody, V domains shown)
VH: QVQLQQWGAGLLKPSETLSLTCGVYGGSFSGYYWSWIRQPPGMGLEWIGEINHRGNTNYNPSLKSRVTISEDTSKNQFSLRLSSVTAADTAVYFCTRGEDYSDYDYYGDFWGQGTLVTVSS
VL: EIVLTQSPATLSLSQGERATLSCRASQSISSYLAWYQQKPGQAPRLLIYAASNRATGIPARFSGSGSGTDFTLTISSLEPEDFAIYYCQQRSNWPLTFGGGTKVEIK
notes: Fully human antibody from OMT rats; IgG4 kappa by its name
